From patent US20250074980A1 (BRIGHAM AND WOMEN S HOSPITAL, published 2025)

T1: His-tagged CEACAM1 (human, UniProt P13688 35-428)
T1 construct: 45 kDa SPR analyte; also called CEACAM1-HIS; CEACAM1 analyte
T1 sequence: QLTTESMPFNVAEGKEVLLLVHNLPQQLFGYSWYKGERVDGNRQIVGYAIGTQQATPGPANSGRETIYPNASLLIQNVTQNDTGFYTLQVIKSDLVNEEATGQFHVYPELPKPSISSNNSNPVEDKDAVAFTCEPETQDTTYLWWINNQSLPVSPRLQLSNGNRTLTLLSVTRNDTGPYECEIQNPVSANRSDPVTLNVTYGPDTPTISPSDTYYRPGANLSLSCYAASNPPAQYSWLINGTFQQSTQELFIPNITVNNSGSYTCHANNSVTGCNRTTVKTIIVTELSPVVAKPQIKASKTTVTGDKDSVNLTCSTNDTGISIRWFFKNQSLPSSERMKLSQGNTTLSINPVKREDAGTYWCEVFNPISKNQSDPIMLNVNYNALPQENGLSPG


What was measured:
His-tagged CEACAM1 [1] = target: T1, His-tagged CEACAM1; assay: SPR single-cycle, purified IgG captured
In short: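 Binding was measured by surface plasmon resonance in single-cycle kinetics mode on a Biacore T200, running in HBS-P+ (pH 7.4) at 25° C. His-tagged CEACAM1 served as analyte over purified IgG captured on a Series S Protein A chip. After subtraction of reference-channel and blank-run signals, kon, koff and Kd were fitted, and relative KD was expressed against the parent antibody from the same experiment.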

His-tagged CEACAM1 [2] = target: T1, His-tagged CEACAM1; assay: SPR single-cycle, supernatant IgG captured
Protocol: In order to assess the binding of the humanized, affinity matured reformatted lead IgGs, single-cycle kinetics analysis was performed on crude supernatants using a Biacore T200 running Biacore T200 Control Software V2.0.1 and Biacore T200 Evaluation Software V3.0. Antibodies were diluted in HBS-P+ to a final concentration of 0.5 μg/ml. At the start of each cycle, antibodies were loaded onto Fc2, Fc3 and Fc4 of the Protein A chip. IgGs were captured at a flow rate of 10 μl/min to give an immobilisation level (RL) of ˜100 RU (a level calculated to obtain a Rₘₐₓ of ˜50-150 RU once the analyte is bound). The surface was then allowed to stabilize. Single-cycle kinetics data was obtained with CEACAM1 as the analyte at a flow rate of 80 μl/min to minimize any potential mass transfer effects. Multiple repeats with the parent (VH1/Vκ8 S29A) antibody were performed to check the stability of the surface and analyte over the kinetic cycles. The signal from the reference channel Fc1 (no antibody) was subtracted from that of Fc2, Fc3 and Fc4 to correct for differences in non-specific binding to the reference surface. A three point, two-fold dilution range from 70 nM to 280 nM CEACAM1 without regeneration between each concentration was used. The signal from each antibody blank run (no CEACAM1) was subtracted to correct for differences in surface stability. The association phase for the three injections of increasing concentrations of CEACAM1 was monitored for 80 seconds each time and a single dissociation phase was measured for 150 seconds following the last injection of CEACAM1. Regeneration of the Protein A surface was conducted using two injections of 10 mM glycine-HCL pH 1.5 followed by a stabilization period of 250 seconds.

His-tagged CEACAM1 [3] = target: T1, His-tagged CEACAM1; assay: SPR single-cycle, supernatant IgG captured; remark: listed apart in the source
In short: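 Antibody IgG was produced by transient PEI transfection of HEK EBNA cells in 6-well plates, with supernatants collected 5-7 days later, quantified by ELISA and filtered. Binding was measured by single-cycle surface plasmon resonance on a Biacore T200 at 25° C in HBS-P+ (pH 7.4), capturing IgG on Protein A and flowing His-tagged CEACAM1 as analyte. Kon, koff and Kd were obtained by fitting, and relative KD was expressed against the parent antibody tested in the same experiment.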

Row | Kd (His-tagged CEACAM1 [1]) | koff (His-tagged CEACAM1 [1]) | kon (His-tagged CEACAM1 [1]) | relative KD to parent (His-tagged CEACAM1 [1]) | Kd (His-tagged CEACAM1 [2]) | koff (His-tagged CEACAM1 [2]) | kon (His-tagged CEACAM1 [2]) | relative KD to parent (His-tagged CEACAM1 [2]) | Kd (His-tagged CEACAM1 [3]) | koff (His-tagged CEACAM1 [3]) | kon (His-tagged CEACAM1 [3]) | relative KD to parent (His-tagged CEACAM1 [3]) | Binder
1 | 69 nM | 0.0065 s⁻¹ | 95000 M⁻¹ s⁻¹ | 6.9 | 77 nM | 0.0072 s⁻¹ | 93000 M⁻¹ s⁻¹ | 7.3 |  |  |  |  | 8H3_9B3/CP08E05 (antibody, IgG4, V domains shown, IgG4 (S241P), kappa) VH: EVQLLESGGGLVQPGGSLRLSCAASGFTFNAHAISWVRQAPGKGLEWVATISSGGTYTYYPDSVKGRFTISRDNSKNTLYLQMNSLKAEDTAMYYCARHDFDYFPYWFAHWGQGTLVTVSS VL: EIVLTQSPATLSLSPGERATLSCRANSAVSYMYWYQQKPGQAPRPWIYLTSNRATGVPARFSGSGSGTDYTLTISSLEPEDFAVYYCQQWTTNPPTFGQGTKLEIK
2 | 67 nM | 0.0062 s⁻¹ | 92000 M⁻¹ s⁻¹ | 7.1 | 77 nM | 0.0069 s⁻¹ | 90000 M⁻¹ s⁻¹ | 7.2 |  |  |  |  | 8H3_9B3/Vκ8 S29A (antibody, IgG4, V domains shown, IgG4 (S241P), kappa) VH: EVQLLESGGGLVQPGGSLRLSCAASGFTFNAHAISWVRQAPGKGLEWVATISSGGTYTYYPDSVKGRFTISRDNSKNTLYLQMNSLKAEDTAMYYCARHDFDYFPYWFAHWGQGTLVTVSS VL: EIVLTQSPATLSLSPGERATLSCRANSAVSYMYWYQQKPGQAPRPWIYLTSNRATGVPARFSGSGSGTDYTLTISSLEPEDFAVYYCQQWSSNPPTFGQGTKLEIK
3 | 59 nM | 0.0056 s⁻¹ | 95000 M⁻¹ s⁻¹ | 8 | 70 nM | 0.0063 s⁻¹ | 90000 M⁻¹ s⁻¹ | 8 |  |  |  |  | 8H3_9B3/CP08F05 (antibody, IgG4, V domains shown, IgG4 (S241P), kappa) VH: EVQLLESGGGLVQPGGSLRLSCAASGFTFNAHAISWVRQAPGKGLEWVATISSGGTYTYYPDSVKGRFTISRDNSKNTLYLQMNSLKAEDTAMYYCARHDFDYFPYWFAHWGQGTLVTVSS VL: EIVLTQSPATLSLSPGERATLSCRANSAVSYMYWYQQKPGQAPRPWIYLTSNRATGVPARFSGSGSGTDYTLTISSLEPEDFAVYYCQQWTSNPPTFGQGTKLEIK
4 | 95 nM | 0.01 s⁻¹ | 110000 M⁻¹ s⁻¹ | 5 |  |  |  |  | 100 nM | 0.011 s⁻¹ | 110000 M⁻¹ s⁻¹ | 5.5 | CP09C02/CP08F05 (antibody, IgG4, V domains shown, IgG4 (S241P), kappa) VH: EVQLLESGGGLVQPGGSLRLSCAASEFTFSDHAMSWVRQAPGKGLEWVATISSGGTYTYYPDSVKGRFTISRDNSKNTLYLQMNSLKAEDTAMYYCARHGFDYDAAWFAYWGQGTLVTVSS VL: EIVLTQSPATLSLSPGERATLSCRANSAVSYMYWYQQKPGQAPRPWIYLTSNRATGVPARFSGSGSGTDYTLTISSLEPEDFAVYYCQQWTSNPPTFGQGTKLEIK
5 | 76 nM | 0.0055 s⁻¹ | 73000 M⁻¹ s⁻¹ | 6.3 | 93 nM | 0.0061 s⁻¹ | 66000 M⁻¹ s⁻¹ | 6 |  |  |  |  | 8H3_9C2/CP08F05 (antibody, IgG4, V domains shown, IgG4 (S241P), kappa; also called 8H3_9C2/CPO08_F05) VH: EVQLLESGGGLVQPGGSLRLSCAASEFTFSDHAMSWVRQAPGKGLEWVATISSGGTYTYYPDSVKGRFTISRDNSKNTLYLQMNSLKAEDTAMYYCARHGFDYFPYWFAHWGQGTLVTVSS VL: EIVLTQSPATLSLSPGERATLSCRANSAVSYMYWYQQKPGQAPRPWIYLTSNRATGVPARFSGSGSGTDYTLTISSLEPEDFAVYYCQQWTSNPPTFGQGTKLEIK
